Publication doi:10.1101/2025.09.18.677151, “Structure and substrate recognition by the Twin-arginine translocation (Tat) pathway core complex” (bioRxiv, 2025)

Tests used:
[1] = biological target: T1, E. coli TatBC complex (E. coli, UniProt P69425 1-171; P69423 1-258); assay: cryo-EM structure; purified MdoD (SUMO removed) mixed with purified E. coli Tat complex in 0.02% GDN overnight at 4°C, SEC; core region 2.4 Å (C3), focused refinement on MdoD 2.1 Å (C2); conditions: both partners purified
T1 construct: TatB, E. coli; amplified from E. coli genomic DNA (DSM 1116); TatC, E. coli; also called TatB3C3; (TatBC)3; source: E. coli MC4100 ΔtatABCD ΔtatE, pQE60 based vector, overexpressed; purified in GDN (His-tag resin, SEC); for the pull-down captured from GDN-solubilised membranes on His-tag resin and washed; copies: 3 + 3
T1 sequence 1: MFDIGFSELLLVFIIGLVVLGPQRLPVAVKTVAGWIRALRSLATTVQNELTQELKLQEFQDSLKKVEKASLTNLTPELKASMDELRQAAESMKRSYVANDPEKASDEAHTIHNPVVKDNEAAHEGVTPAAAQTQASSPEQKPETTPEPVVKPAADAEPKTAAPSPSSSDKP
T1 sequence 2: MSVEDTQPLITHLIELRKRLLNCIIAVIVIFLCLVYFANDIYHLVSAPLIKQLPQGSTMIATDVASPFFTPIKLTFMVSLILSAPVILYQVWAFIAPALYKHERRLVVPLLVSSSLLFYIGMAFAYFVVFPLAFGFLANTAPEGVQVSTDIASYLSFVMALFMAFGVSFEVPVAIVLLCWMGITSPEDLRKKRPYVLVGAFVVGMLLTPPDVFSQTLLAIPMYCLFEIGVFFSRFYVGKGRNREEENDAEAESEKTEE

[2] = biological target: the molecule itself; assay: as above
[3] = biological target: the molecule itself; assay: crystal structure; selenomethionine-labelled M. xanthus TatC periplasmic domain; sitting drop, 21 °C; data to 2.0 Å
[4] = biological target: the molecule itself; assay: cryo-EM structure; M. xanthus TatBC complex purified in GDN; single particle, C3 symmetry
[5] = biological target: the molecule itself; assay: cryo-EM structure; N. salsuginis TatBC complex purified in GDN; single particle, C3 symmetry
[6] = biological target: T2, E. coli TatC with a C-terminal strep tag, expressed from the tatABC plasmid (E. coli, UniProt P69423 1-258); assay: quantification of Coomassie stained SDS-PAGE bands of the purified complexes; purified E. coli TatABC and TatBC loaded at 4 dilutions; bands quantified with ImageJ; three independent samples; conditions: both partners purified
T2 construct: TatC, E. coli; also called TatC_(strep); source: E. coli MC4100 ΔtatABCD ΔtatE, tatABC operon on a low copy number plasmid; in GDN-solubilised membranes, captured on Streptactin XT; not shown: strep tag, C-terminal, kept
T2 sequence: T1 sequence 2

[7] = biological target: the molecule itself; assay: cryo-EM structure; E. coli TatBC complex purified in GDN; single particle, C3 symmetry, 3.1 Å

B1: E. coli MdoD, full length with its Tat signal peptide (natural protein, UniProt P40120 1-551, looked up)
chain: MDRRRFIKGSMAMAAVCGTSGIASLFSQAAFAADSDIADGQTQRFDFSILQSMAHDLAQTAWRGAPRPLPDTLATMTPQAYNSIQYDAEKSLWHNVENRQLDAQFFHMGMGFRRRVRMFSVDPATHLAREIHFRPELFKYNDAGVDTKQLEGQSDLGFAGFRVFKAPELARRDVVSFLGASYFRAVDDTYQYGLSARGLAIDTYTDSKEEFPDFTAFWFDTVKPGATTFTVYALLDSASITGAYKFTIHCEKSQVIMDVENHLYARKDIKQLGIAPMTSMFSCGTNERRMCDTIHPQIHDSDRLSMWRGNGEWICRPLNNPQKLQFNAYTDNNPKGFGLLQLDRDFSHYQDIMGWYNKRPSLWVEPRNKWGKGTIGLMEIPTTGETLDNIVCFWQPEKAVKAGDEFAFQYRLYWSAQPPVHCPLARVMATRTGMGGFSEGWAPGEHYPEKWARRFAVDFVGGDLKAAAPKGIEPVITLSSGEAKQIEILYIEPIDGYRIQFDWYPTSDSTDPVDMRMYLRCQGDAISETWLYQYFPPAPDKRQYVDDRVMS
notes: MdoD (OpgD), E. coli, precursor with the 32 residue Tat signal peptide; amplified from E. coli genomic DNA (DSM 1116); also called OpgD; source: E. coli BL21 (DE3) ΔtatABCD ΔtatE, pET28a modified, purified (His-tag resin), His6-SUMO removed with Ulp1; not shown: His6-SUMO, N-terminal, cleaved
Which “stoichiometry N” value [1] does the source give for B1 here?
Its value is 3.

And the “stoichiometry N” value [2]?
The value was 2.

B2: M. xanthus TatC periplasmic domain (residues 127-303) (domain or fragment, Myxococcus xanthus, UniProt Q2PHA2 127-303, looked up)
chain: SMFTFLLNEEETLALEQRLDTARLRADDALRFLRLGEAEEAGRIAKETSTQLRAEGQGQAPAPEVAPAASVEMTGRLDGLGRLLDAASVGYGAQSRGVLRQAVEKRVEAVTAYEKKDFAAAAAAMDGSASLLAGIAPTRTEELAGLWRLEKELATAHAAHEAARWTRPMLSMHEQLS
modifications: selenomethionine-labelled
notes: TatC, Myxococcus xanthus, periplasmic domain, residues 127-303; also called M. xanthus insert; M. xanthus periplasmic domain; source: E. coli B834 (DE3), pET15b, purified (Ni-NTA, TEV, SEC)
With B2 as the binder, how does the “stoichiometry N” value [3] read?
The value was 3.

B3: M. xanthus TatC (GFP-His removed) (natural protein, Myxococcus xanthus)
chain: MSLADHLTELRSRLMRCTIAVLILGTISLVFAKPIFGLLMQPVLDALPPENRSLIYTSGIEELNVLMKVGVYCGIFLTTPVILMQIWGFVSPGLYPEERRFAAPFVAFGSIAFLLGAAFCYFAVLPSMFTFLLNEEETLALEQRLDTARLRADDALRFLRLGEAEEAGRIAKETSTQLRAEGQGQAPAPEVAPAASVEMTGRLDGLGRLLDAASVGYGAQSRGVLRQAVEKRVEAVTAYEKKDFAAAAAAMDGSASLLAGIAPTRTEELAGLWRLEKELATAHAAHEAARWTRPMLSMHEQLSLVLLLILAFGIIFELPLVMALLGVVGVVKSSWLFRYQRHAFVVCLIAAAIITPTGDVVNLSLMAGPMLLCYELGVLLVWMVERRRARNSAETGITPAS
notes: TatC, Myxococcus xanthus, with a large periplasmic insert; gene codon-optimised and synthesised; source: E. coli strain L56, pWALDO based pTatC-GFP-His, co-overexpressed with TatB-strep; purified in GDN (Ni-NTA, TEV, Streptactin XT, SEC)
How did the “stoichiometry N” value [4] turn out when B3 was run?
The value was 3.

B4: N. salsuginis TatC (GFP-His removed) (natural protein, Nitratifractor salsuginis)
chain: MFESMKPHLAELRQRLAISVLAVFVGFIIAFTFHNAILGWITKPLNNALIQVGKIVEKREMGTWKISGNEHNATLAPSKSPALLSDHAQSAEKLHRTLAEASQATQNPKLQKLLSQAASAAEELARNSRILRKALVKEENLTRQAVNQNLREKSFNGMITTHQVGGAFFVALKVSFFAGILMAMPVILWQLWLFIAPGLYDNEKKMVLPFVVGGSVMFLIGVLFAYYVVTPFGFQFLITFGSFLYTPLINIEDYVGFFTKILIGFGIAFELPVVAYFLALLGLITDKTLKDYFKYAIVIIFLLAAFLTPPDVLTQLLMAAPLILLYGLSILIVHYVNPYKPEEKEDDEEEEEDEFEKAEREFEALEKGSESHES
notes: TatC, Nitratifractor salsuginis, with a large periplasmic insert; gene codon-optimised and synthesised; source: E. coli strain L56, pWALDO based pTatC-GFP-His, co-overexpressed with TatB-strep or TatA-strep; purified in GDN or digitonin (Ni-NTA, TEV, Streptactin XT, SEC)
B4 was tested. Which “stoichiometry N” value [5] did it give?
The value was 3.

B5: E. coli TatB expressed from the tatABC plasmid (natural protein)
chain: T1 sequence 1
notes: TatB, E. coli; source: E. coli MC4100 ΔtatABCD ΔtatE, tatABC operon on a low copy number plasmid; in GDN-solubilised membranes, co-purified
Which “ratio of TatB to TatC in the TatABC complex relative to the TatBC complex” value [6] does the source give for B5 here?
Its value is 0.78.

B6: E. coli TatB (subunit of the overexpressed TatBC complex) (natural protein)
chain: T1 sequence 1
notes: TatB, E. coli; amplified from E. coli genomic DNA (DSM 1116); residues 1-63 modelled in the cryo-EM map; source: E. coli MC4100 ΔtatABCD ΔtatE, pQE60 based vector, co-overexpressed with TatC; purified in GDN (His-tag resin, SEC)
Does B6 bind [7]?
Result: binds
